# From the supplement of paper PMC9112550, “Optimization of the antimicrobial peptide Bac7 by deep mutational scanning” (BMC Biology, 2022)
# Tested on: Escherichia coli TOP10
# Experiment: shrunken log2 fold change of peptide-encoding DNA abundance (4.5 h post-induction vs induction); higher = less antimicrobial activity (less host growth inhibition)
# Details: time post-induction: 4.5 h; library: site-saturation at positions 5, 18, 19, 20
# 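Also: peptides expressed intracellularly from a pBAD plasmid library in pooled LB shake-flask culture, induced with 0.3% L-arabinose, DNA abundance read by NGS, three biological replicates, DESeq2 with apeglm shrinkage.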
row,Sequence,shrunken log2 fold change
1,RRIRCRPPRLPRPRPRPNKSPRP,-0.584
2,RRIRCRPPRLPRPRPRPNKVPRP,-0.142
3,RRIRCRPPRLPRPRPRPNLKPRP,-0.585
4,RRIRCRPPRLPRPRPRPNMCPRP,-0.222
5,RRIRCRPPRLPRPRPRPNMSPRP,-0.204
6,RRIRCRPPRLPRPRPRPNNKPRP,-0.71
7,RRIRCRPPRLPRPRPRPNQDPRP,-0.348
8,RRIRCRPPRLPRPRPRPNQQPRP,0.00277
9,RRIRCRPPRLPRPRPRPNQYPRP,-0.92
10,RRIRCRPPRLPRPRPRPNRHPRP,-0.388
11,RRIRCRPPRLPRPRPRPNSHPRP,-0.556
12,RRIRCRPPRLPRPRPRPNTWPRP,-0.539
13,RRIRCRPPRLPRPRPRPNVPPRP,-0.154
14,RRIRCRPPRLPRPRPRPNWVPRP,-0.279
15,RRIRCRPPRLPRPRPRPNWYPRP,0.09
16,RRIRCRPPRLPRPRPRPNYGPRP,-0.297
17,RRIRCRPPRLPRPRPRPNYMPRP,-0.677
18,RRIRCRPPRLPRPRPRPNYWPRP,-0.326
19,RRIRCRPPRLPRPRPRPPAHPRP,2.07
20,RRIRCRPPRLPRPRPRPPAWPRP,0.692
21,RRIRCRPPRLPRPRPRPPCNPRP,-0.355
22,RRIRCRPPRLPRPRPRPPDLPRP,-0.00662
23,RRIRCRPPRLPRPRPRPPDPPRP,0.459
24,RRIRCRPPRLPRPRPRPPERPRP,0.576
25,RRIRCRPPRLPRPRPRPPGAPRP,0.678

row,Sequence,shrunken log2 fold change
1,RRIRCRPPRLPRPRPRPPGEPRP,0.609
2,RRIRCRPPRLPRPRPRPPGKPRP,0.141
3,RRIRCRPPRLPRPRPRPPGVPRP,0.158
4,RRIRCRPPRLPRPRPRPPGYPRP,0.422
5,RRIRCRPPRLPRPRPRPPHQPRP,0.746
6,RRIRCRPPRLPRPRPRPPKKPRP,0.132
7,RRIRCRPPRLPRPRPRPPKPPRP,0.692
8,RRIRCRPPRLPRPRPRPPKRPRP,0.797
9,RRIRCRPPRLPRPRPRPPPGPRP,1.47
10,RRIRCRPPRLPRPRPRPPPQPRP,1.34
11,RRIRCRPPRLPRPRPRPPQEPRP,-0.069
12,RRIRCRPPRLPRPRPRPPRCPRP,1.9
13,RRIRCRPPRLPRPRPRPPVKPRP,-0.00107
14,RRIRCRPPRLPRPRPRPPWIPRP,-0.209
15,RRIRCRPPRLPRPRPRPPWNPRP,-0.0539
16,RRIRCRPPRLPRPRPRPPYKPRP,-0.511
17,RRIRCRPPRLPRPRPRPPYYPRP,-0.314
18,RRIRCRPPRLPRPRPRPQAEPRP,0.215
19,RRIRCRPPRLPRPRPRPQALPRP,0.0319
20,RRIRCRPPRLPRPRPRPQAVPRP,-0.154
21,RRIRCRPPRLPRPRPRPQCHPRP,0.134
22,RRIRCRPPRLPRPRPRPQCPPRP,-0.399
23,RRIRCRPPRLPRPRPRPQCVPRP,-0.0975
24,RRIRCRPPRLPRPRPRPQDCPRP,-0.241
25,RRIRCRPPRLPRPRPRPQDGPRP,0.143

row,Sequence,shrunken log2 fold change
1,RRIRCRPPRLPRPRPRPQDLPRP,-0.472
2,RRIRCRPPRLPRPRPRPQDWPRP,-0.0628
3,RRIRCRPPRLPRPRPRPQEGPRP,-0.0193
4,RRIRCRPPRLPRPRPRPQETPRP,0.00739
5,RRIRCRPPRLPRPRPRPQGHPRP,-0.0916
6,RRIRCRPPRLPRPRPRPQHYPRP,-0.796
7,RRIRCRPPRLPRPRPRPQKEPRP,-0.104
8,RRIRCRPPRLPRPRPRPQLFPRP,-0.242
9,RRIRCRPPRLPRPRPRPQLIPRP,0.229
10,RRIRCRPPRLPRPRPRPQMGPRP,-0.273
11,RRIRCRPPRLPRPRPRPQNAPRP,-0.372
12,RRIRCRPPRLPRPRPRPQNNPRP,-0.526
13,RRIRCRPPRLPRPRPRPQQHPRP,-0.113
14,RRIRCRPPRLPRPRPRPQQKPRP,0.13
15,RRIRCRPPRLPRPRPRPQRMPRP,-0.0914
16,RRIRCRPPRLPRPRPRPQVQPRP,0.0244
17,RRIRCRPPRLPRPRPRPQWKPRP,-0.0376
18,RRIRCRPPRLPRPRPRPQWNPRP,0.618
19,RRIRCRPPRLPRPRPRPQWYPRP,-0.321
20,RRIRCRPPRLPRPRPRPRAGPRP,0.472
21,RRIRCRPPRLPRPRPRPRAMPRP,0.914
22,RRIRCRPPRLPRPRPRPRARPRP,0.708
23,RRIRCRPPRLPRPRPRPRCKPRP,-0.206
24,RRIRCRPPRLPRPRPRPREDPRP,0.0389
25,RRIRCRPPRLPRPRPRPRFIPRP,-0.171

row,Sequence,shrunken log2 fold change
1,RRIRCRPPRLPRPRPRPRGPPRP,0.816
2,RRIRCRPPRLPRPRPRPRGWPRP,0.605
3,RRIRCRPPRLPRPRPRPRIPPRP,-0.00295
4,RRIRCRPPRLPRPRPRPRKFPRP,-0.00353
5,RRIRCRPPRLPRPRPRPRLIPRP,0.0496
6,RRIRCRPPRLPRPRPRPRMAPRP,0.331
7,RRIRCRPPRLPRPRPRPRMEPRP,0.0253
8,RRIRCRPPRLPRPRPRPRNDPRP,-0.191
9,RRIRCRPPRLPRPRPRPRNFPRP,-0.0465
10,RRIRCRPPRLPRPRPRPRNLPRP,-0.222
11,RRIRCRPPRLPRPRPRPRPTPRP,0.808
12,RRIRCRPPRLPRPRPRPRRDPRP,0.0823
13,RRIRCRPPRLPRPRPRPRRVPRP,0.342
14,RRIRCRPPRLPRPRPRPRTCPRP,0.0191
15,RRIRCRPPRLPRPRPRPRYSPRP,-0.712
16,RRIRCRPPRLPRPRPRPSCTPRP,-0.287
17,RRIRCRPPRLPRPRPRPSETPRP,0.108
18,RRIRCRPPRLPRPRPRPSFIPRP,-0.811
19,RRIRCRPPRLPRPRPRPSFTPRP,-0.668
20,RRIRCRPPRLPRPRPRPSGRPRP,0.235
21,RRIRCRPPRLPRPRPRPSHFPRP,-0.345
22,RRIRCRPPRLPRPRPRPSHTPRP,-0.283
23,RRIRCRPPRLPRPRPRPSIEPRP,-0.123
24,RRIRCRPPRLPRPRPRPSIKPRP,-0.597
25,RRIRCRPPRLPRPRPRPSIRPRP,-0.608

row,Sequence,shrunken log2 fold change
1,RRIRCRPPRLPRPRPRPSITPRP,-0.641
2,RRIRCRPPRLPRPRPRPSKNPRP,-0.382
3,RRIRCRPPRLPRPRPRPSLYPRP,-0.518
4,RRIRCRPPRLPRPRPRPSMNPRP,-0.757
5,RRIRCRPPRLPRPRPRPSNEPRP,-0.379
6,RRIRCRPPRLPRPRPRPSNMPRP,-0.604
7,RRIRCRPPRLPRPRPRPSPAPRP,1.35
8,RRIRCRPPRLPRPRPRPSPRPRP,0.485
9,RRIRCRPPRLPRPRPRPSPSPRP,0.128
10,RRIRCRPPRLPRPRPRPSQTPRP,-0.338
11,RRIRCRPPRLPRPRPRPSREPRP,-0.184
12,RRIRCRPPRLPRPRPRPSRIPRP,-0.562
13,RRIRCRPPRLPRPRPRPSSAPRP,-0.278
14,RRIRCRPPRLPRPRPRPSTGPRP,-0.354
15,RRIRCRPPRLPRPRPRPSTTPRP,-0.257
16,RRIRCRPPRLPRPRPRPSTVPRP,-0.443
17,RRIRCRPPRLPRPRPRPSVEPRP,0.00103
18,RRIRCRPPRLPRPRPRPSVRPRP,-0.362
19,RRIRCRPPRLPRPRPRPSWNPRP,-0.68
20,RRIRCRPPRLPRPRPRPSWSPRP,-0.263
21,RRIRCRPPRLPRPRPRPSWWPRP,0.205
22,RRIRCRPPRLPRPRPRPSYIPRP,-0.675
23,RRIRCRPPRLPRPRPRPSYWPRP,-0.71
24,RRIRCRPPRLPRPRPRPTDHPRP,-0.257
25,RRIRCRPPRLPRPRPRPTFGPRP,-0.213

row,Sequence,shrunken log2 fold change
1,RRIRCRPPRLPRPRPRPTFHPRP,-0.366
2,RRIRCRPPRLPRPRPRPTFIPRP,-0.307
3,RRIRCRPPRLPRPRPRPTHEPRP,0.628
4,RRIRCRPPRLPRPRPRPTIPPRP,-0.417
5,RRIRCRPPRLPRPRPRPTIQPRP,-0.508
6,RRIRCRPPRLPRPRPRPTISPRP,-0.381
7,RRIRCRPPRLPRPRPRPTKQPRP,-0.0825
8,RRIRCRPPRLPRPRPRPTLSPRP,-0.0995
9,RRIRCRPPRLPRPRPRPTNAPRP,0.307
10,RRIRCRPPRLPRPRPRPTNGPRP,-0.0378
11,RRIRCRPPRLPRPRPRPTQAPRP,0.199
12,RRIRCRPPRLPRPRPRPTQYPRP,-0.0607
13,RRIRCRPPRLPRPRPRPTRGPRP,0.807
14,RRIRCRPPRLPRPRPRPTRMPRP,0.0511
15,RRIRCRPPRLPRPRPRPTRQPRP,0.503
16,RRIRCRPPRLPRPRPRPTSDPRP,0.129
17,RRIRCRPPRLPRPRPRPTSEPRP,0.108
18,RRIRCRPPRLPRPRPRPTTCPRP,-0.293
19,RRIRCRPPRLPRPRPRPTTFPRP,-0.635
20,RRIRCRPPRLPRPRPRPTTLPRP,-0.219
21,RRIRCRPPRLPRPRPRPTVIPRP,-0.907
22,RRIRCRPPRLPRPRPRPTWRPRP,1.4
23,RRIRCRPPRLPRPRPRPVAFPRP,-0.169
24,RRIRCRPPRLPRPRPRPVCEPRP,0.0301
25,RRIRCRPPRLPRPRPRPVCFPRP,-0.141
